Bridges are numbered along the chain shown (N, C = ends). Bounds are passed on as bounds.

Here are results for one molecule from patent US7211395 (dated 2007).

Test [1] concerns the target T1, chicken ovalbumin (chicken, UniProt P01012).
T1 chain: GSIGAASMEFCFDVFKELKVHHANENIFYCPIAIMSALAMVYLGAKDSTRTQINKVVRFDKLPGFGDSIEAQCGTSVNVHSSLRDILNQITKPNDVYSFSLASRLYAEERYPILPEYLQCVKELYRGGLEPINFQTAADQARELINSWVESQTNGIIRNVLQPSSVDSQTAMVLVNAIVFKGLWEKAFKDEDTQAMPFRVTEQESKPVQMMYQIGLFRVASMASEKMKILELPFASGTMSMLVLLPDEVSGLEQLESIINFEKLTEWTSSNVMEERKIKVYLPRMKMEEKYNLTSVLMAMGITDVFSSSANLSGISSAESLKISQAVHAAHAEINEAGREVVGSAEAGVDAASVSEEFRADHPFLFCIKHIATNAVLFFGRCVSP
The test can be described thus: FP, PBS pH 7.4.

Test [2] addresses T2, rabbit serum albumin (rabbit, UniProt P49065).
T2 chain: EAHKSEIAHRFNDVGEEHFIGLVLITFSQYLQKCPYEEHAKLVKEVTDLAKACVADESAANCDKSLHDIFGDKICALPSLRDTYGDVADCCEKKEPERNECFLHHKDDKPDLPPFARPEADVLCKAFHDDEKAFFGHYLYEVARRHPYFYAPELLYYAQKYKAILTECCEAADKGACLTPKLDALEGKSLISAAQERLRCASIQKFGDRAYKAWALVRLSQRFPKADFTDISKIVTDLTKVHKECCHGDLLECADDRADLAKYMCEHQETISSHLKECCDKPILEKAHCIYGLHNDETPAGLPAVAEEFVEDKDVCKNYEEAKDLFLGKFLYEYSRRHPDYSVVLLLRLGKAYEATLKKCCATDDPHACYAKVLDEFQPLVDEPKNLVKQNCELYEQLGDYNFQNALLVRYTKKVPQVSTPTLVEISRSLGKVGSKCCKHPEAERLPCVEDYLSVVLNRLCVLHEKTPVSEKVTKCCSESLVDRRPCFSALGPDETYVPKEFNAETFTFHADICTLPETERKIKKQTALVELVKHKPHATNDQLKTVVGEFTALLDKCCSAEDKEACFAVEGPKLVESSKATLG
Nature of the test: FP, pH 6.2, no NaCl.

The target in test [3] is T3, pig serum albumin (pig, UniProt P08835).
T3 chain: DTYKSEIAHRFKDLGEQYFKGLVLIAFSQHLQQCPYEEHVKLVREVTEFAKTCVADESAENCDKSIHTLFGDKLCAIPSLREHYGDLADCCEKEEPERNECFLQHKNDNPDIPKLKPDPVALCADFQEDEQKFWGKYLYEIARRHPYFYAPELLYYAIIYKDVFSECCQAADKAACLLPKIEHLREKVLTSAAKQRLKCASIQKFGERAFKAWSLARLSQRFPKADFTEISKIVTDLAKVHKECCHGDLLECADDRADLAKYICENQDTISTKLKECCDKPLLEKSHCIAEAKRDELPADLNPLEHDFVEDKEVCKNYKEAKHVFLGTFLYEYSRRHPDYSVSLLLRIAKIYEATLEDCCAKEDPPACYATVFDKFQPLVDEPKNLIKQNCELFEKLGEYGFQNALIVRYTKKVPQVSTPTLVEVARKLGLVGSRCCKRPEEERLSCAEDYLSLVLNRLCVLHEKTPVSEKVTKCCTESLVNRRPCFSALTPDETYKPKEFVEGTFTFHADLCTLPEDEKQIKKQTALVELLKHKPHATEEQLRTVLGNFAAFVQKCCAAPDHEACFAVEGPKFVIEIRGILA
The test can be described thus: FP, pH 6.2, no NaCl.

The target in test [4] is T1, chicken ovalbumin. Nature of the test: FP, pH 6.2, no NaCl.

A word on the Kd: it is the constant that tells how readily two partners part at equilibrium. Low readings indicate a tighter complex, high ones a looser complex. In the case of Ac-AEGTGDFWFCDRIAWYPQHLCEFLDPEGGGK(fluorescein)-NH2 (disulfide 10-21 (inferred)) [DX-236], the dissociation constant Kd was greater than 200 µM in test [1], 500 nM in test [2], 500 nM in test [3] and greater than 200 µM in test [4].
